Experimental data taken from patent US9572342B2, “Use of an anthranilic diamide derivatives with heteroaromatic and heterocyclic substituents in combination with a biologicalcontrol agent” (BAYER INTELLECTUAL PROPERTY GMBH, priority 2011, dated 2017).

B1: Harpin: Harpin protein, isolated from Erwinia amylovora (products known as Messenger, ProAct, Employ) (protein, UniProt Q01099 1-403, looked up)
Harpin HrpN: MSLNTSGLGASTMQISIGGAGGNNGLLGTSRQNAGLGGNSALGLGGGNQNDTVNQLAGLLTGMMMMMSMMGGGGLMGGGLGGGLGNGLGGSGGLGEGLSNALNDMLGGSLNTLGSKGGNNTTSTTNSPLDQALGINSTSQNDDSTSGTDSTSDSSDPMQQLLKMFSEIMQSLFGDGQDGTQGSSSGGKQPTEGEQNAYKKGVTDALSGLMGNGLSQLLGNGGLGGGQGGNAGTGLDGSSLGGKGLQNLSGPVDYQQLGNAVGTGIGMKAGIQALNDIGTHSDSSTRSFVNKGDRAMAKEIGQFMDQYPEVFGKPQYQKGPGQEVKTDDKSWAKALSKPDDDGMTPASMEQFNKAKGMIKSAMAGDTGNGNLQARGAGGSSLGIDAMMAGDAINNMALGKLGAA

Legend:
Type in all cases: in vivo
[1] = tested on: mustard beetle larvae (Phaedon cochleariae); assay: Phaedon cochleariae larvae - spray application (Example 1); details: 48 h, read-out: Mortality in % after 2d
Procedure: (§1) Solvent: 78.0 parts by weight of acetone
(§2) • 1.5 parts by weight of dimethylformamide Emulsifier: 0.5 parts by weight of alkylaryl polyglycolether
(§3) To produce a suitable preparation of active compound, 1 part by weight of active compound is mixed with the stated amount of solvent and emulsifier, and the concentrate is diluted with emulsifier-containing water to the desired concentration. The preparation of bacteria, fungi or yeast products contains 10^9-10^10 spores/g or cells/g, the preparation of the virus 10^13 particles/1. To produce a suitable preparation of a biological suspension the cells, viruses or spores are diluted with emulsifier-containing water to the desired concentration.
Chinese cabbage (Brassica pekinensis) leaf-discs are sprayed with a preparation of the active ingredient of the desired concentration. Once dry, the leaf discs are infested with mustard beetle larvae (Phaedon cochleariae).
After the specified period of time, mortality in % is determined. 100% means that all the beetle larvae have been killed; 0% means that none of the beetle larvae have been killed. The mortality values thus determined are recalculated using the Colby-formula.

[2] = tested on: fall armyworm larvae (Spodoptera frugiperda); assay: Spodoptera frugiperda - spray application (Example 2); details: 1.5 g ai/ha
Procedure: as §1, §2
as §3, with “preparation of the bacteria, fungi” for “preparation of bacteria, fungi”
Corn (Zea mais) leaf-discs are sprayed with a preparation of the active ingredient of the desired concentration. Once dry, the leaf discs are infested with fall armyworm larvae (Spodoptera frugiperda).
After the specified period of time, mortality in % is determined. 100% means that all the caterpillars have been killed; 0% means that none of the caterpillars have been killed. The mortality values thus determined are recalculated using the Colby-formula.

[3] = tested on: two spotted spider mite (Tetranychus urticae); assay: Tetranychus urticae test (OP-resistant, spray application) (Example 3); details: 1.5 g ai/ha
Procedure: Solvent: 78 parts by weight acetone
• 1.5 parts by weight dimethylformamide Wetting agent: 0.5 parts by weight alkylarylpolyglcolether
as §3, with “preparation of the bacteria, fungi” for “preparation of bacteria, fungi”, “spores/g or cells/g. To produce” for “spores/g or cells/g, the preparation of the virus 10^13 particles/1. To produce”
French beans (Phaseolus vulgaris) infected with all developmental stages of the two spotted spider mite (Tetranychus urticae), are sprayed with a preparation of the active ingredient at the desired dose rates.
After the specified period of time, activity in % is determined Thus 100% means that all spider mites have been killed and 0% means that none of the spider mites have been killed. The mortality values determined thus are recalculated using the Colby-formula (see sheet 1).

| Molecule | mortality at 1000 g/ha [1] [%] | Mortality in % after 2d [2] [%] | Mortality in % after 6d [3] [%] |
| --- | --- | --- | --- |
| Cc1ccc(C(C)C)c(O)c1 [Thymol] | 0 |  |  |
| B1 |  | 0 | 0 |
